In patent publication US20210246166A1 (Bayer, published 2021):
Numbered stars: 1 amine (or outer) side, 2 acyl side, 3 side chain; on linkers, the order of the positions; unused ones are H or OH. Bridge positions count the residues as written; N and C are the ends. Square brackets hold non-standard residues; d marks the D form. Ends that are not written are not given here. X12 = (S)‑(trifluoromethyl)‑L‑cysteine, O=C([C@H](CSC(F)(F)F)N[*:1])[*:2]; Oic = O=C(O)[C@@H]1C[C@@H]2CCCC[C@@H]2N1; Nva(3-Et) = CCC(CC)[C@H](N)C(=O)O; tBuAla = CC(C)(C)C[C@H](N)C(=O)O; 4Pal = N[C@@H](Cc1ccncc1)C(=O)O; Chg = N[C@H](C(=O)O)C1CCCCC1; Pen = CC(C)(S)[C@H](N)C(=O)O; 3Amb = NCc1cccc(C(=O)O)c1; NMeC = CN[C@@H](CS)C(=O)O; Nva = CCC[C@H](N)C(=O)O; Ac4c = NC1(C(=O)O)CCC1; PEG2 = NCCOCCOCCC(=O)O; Sar = CNCC(=O)O

T1: Recombinant human MASP1 enzyme (fragment corresponding to amino acids 297-699, C-terminal His Tag) (human, UniProt P48740 297-699)
T1 sequence: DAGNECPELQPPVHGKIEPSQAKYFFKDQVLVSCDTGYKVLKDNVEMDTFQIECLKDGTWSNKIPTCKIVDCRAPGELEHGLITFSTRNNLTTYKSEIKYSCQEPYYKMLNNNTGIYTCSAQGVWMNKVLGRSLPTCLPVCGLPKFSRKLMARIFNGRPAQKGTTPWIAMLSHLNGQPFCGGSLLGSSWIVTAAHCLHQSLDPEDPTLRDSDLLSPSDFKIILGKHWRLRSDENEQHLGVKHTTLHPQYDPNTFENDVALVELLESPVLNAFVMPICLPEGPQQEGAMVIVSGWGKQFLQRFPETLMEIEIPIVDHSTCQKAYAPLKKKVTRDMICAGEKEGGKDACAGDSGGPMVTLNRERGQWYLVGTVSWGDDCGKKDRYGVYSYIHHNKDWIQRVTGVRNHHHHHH

B1: ((N-Me)G)-GIC+SRS-((tBu)A)-PPI-(Pen)+IPD-NH2 (peptide)
peptide: [Sar]GICSRS[tBuAla]PPI[Pen]IPD-NH2
modifications: disulfide 4-12; N-terminus assumed
SMILES: CC[C@H](C)[C@H](NC(=O)CNC(=O)CNC)C(=O)N[C@H]1CSSC(C)(C)[C@@H](C(=O)N[C@H](C(=O)N2CCC[C@H]2C(=O)N[C@@H](CC(=O)O)C(N)=O)[C@@H](C)CC)NC(=O)[C@H]([C@@H](C)CC)NC(=O)[C@@H]2CCCN2C(=O)[C@@H]2CCCN2C(=O)[C@H](CC(C)(C)C)NC(=O)[C@H](CO)NC(=O)[C@H](CCCNC(=N)N)NC(=O)[C@H](CO)NC1=O
B2: (3-(Aminomethyl)benzoic acid)-IC+SRS-((tBu)A)-PPI-(Pen)+IP-NH2 (peptide)
peptide: [3Amb]ICSRS[tBuAla]PPI[Pen]IP-NH2
modifications: disulfide 3-11; N-terminus assumed
SMILES: CC[C@H](C)[C@H](NC(=O)c1cccc(CN)c1)C(=O)N[C@H]1CSSC(C)(C)[C@@H](C(=O)N[C@H](C(=O)N2CCC[C@H]2C(N)=O)[C@@H](C)CC)NC(=O)[C@H]([C@@H](C)CC)NC(=O)[C@@H]2CCCN2C(=O)[C@@H]2CCCN2C(=O)[C@H](CC(C)(C)C)NC(=O)[C@H](CO)NC(=O)[C@H](CCCNC(=N)N)NC(=O)[C@H](CO)NC1=O
B3: ((N-Me)G)-IC+SRS-((S)-(trifluoromethyl)-L-cysteine)-PPI-(Pen)+IP-NH2 (peptide)
peptide: [Sar]ICSRS[X12]PPI[Pen]IP-NH2
modifications: disulfide 3-11; N-terminus assumed
SMILES: CC[C@H](C)[C@H](NC(=O)CNC)C(=O)N[C@H]1CSSC(C)(C)[C@@H](C(=O)N[C@H](C(=O)N2CCC[C@H]2C(N)=O)[C@@H](C)CC)NC(=O)[C@H]([C@@H](C)CC)NC(=O)[C@@H]2CCCN2C(=O)[C@@H]2CCCN2C(=O)[C@H](CSC(F)(F)F)NC(=O)[C@H](CO)NC(=O)[C@H](CCCNC(=N)N)NC(=O)[C@H](CO)NC1=O
B4: AIC+SRSLPP-(Chg)-(Pen)+IPD-NH2 (peptide)
peptide: AICSRSLPP[Chg][Pen]IPD-NH2
modifications: disulfide 3-11; N-terminus assumed
SMILES: CC[C@H](C)[C@H](NC(=O)[C@H](C)N)C(=O)N[C@H]1CSSC(C)(C)[C@@H](C(=O)N[C@H](C(=O)N2CCC[C@H]2C(=O)N[C@@H](CC(=O)O)C(N)=O)[C@@H](C)CC)NC(=O)[C@H](C2CCCCC2)NC(=O)[C@@H]2CCCN2C(=O)[C@@H]2CCCN2C(=O)[C@H](CC(C)C)NC(=O)[C@H](CO)NC(=O)[C@H](CCCNC(=N)N)NC(=O)[C@H](CO)NC1=O
B5: ((N-Me)G)-IC+SRSLP-(Oic)-I-(Pen)+IPQ-OH (peptide)
peptide: [Sar]ICSRSLP[Oic]I[Pen]IPQ-OH
modifications: disulfide 3-11; N-terminus assumed
SMILES: CC[C@H](C)[C@H](NC(=O)CNC)C(=O)N[C@H]1CSSC(C)(C)[C@@H](C(=O)N[C@H](C(=O)N2CCC[C@H]2C(=O)N[C@@H](CCC(N)=O)C(=O)O)[C@@H](C)CC)NC(=O)[C@H]([C@@H](C)CC)NC(=O)[C@@H]2C[C@@H]3CCCC[C@@H]3N2C(=O)[C@@H]2CCCN2C(=O)[C@H](CC(C)C)NC(=O)[C@H](CO)NC(=O)[C@H](CCCNC(=N)N)NC(=O)[C@H](CO)NC1=O
B6: AIC+SRSLPP-((S)-2-amino-3-ethyl-pentanoic acid)-C+IPD-NH2 (peptide)
peptide: AICSRSLPP[Nva(3-Et)]CIPD-NH2
modifications: disulfide 3-11; N-terminus assumed
SMILES: CCC(CC)[C@@H]1NC(=O)[C@@H]2CCCN2C(=O)[C@@H]2CCCN2C(=O)[C@H](CC(C)C)NC(=O)[C@H](CO)NC(=O)[C@H](CCCNC(=N)N)NC(=O)[C@H](CO)NC(=O)[C@@H](NC(=O)[C@@H](NC(=O)[C@H](C)N)[C@@H](C)CC)CSSC[C@@H](C(=O)N[C@H](C(=O)N2CCC[C@H]2C(=O)N[C@@H](CC(=O)O)C(N)=O)[C@@H](C)CC)NC1=O
B7: (ACBA)-IC+SRS-((tBu)A)-PPI-(Pen)+I-NH2 (peptide)
peptide: [Ac4c]ICSRS[tBuAla]PPI[Pen]I-NH2
modifications: disulfide 3-11; N-terminus assumed
SMILES: CC[C@H](C)[C@H](NC(=O)[C@H]1NC(=O)[C@H]([C@@H](C)CC)NC(=O)[C@@H]2CCCN2C(=O)[C@@H]2CCCN2C(=O)[C@H](CC(C)(C)C)NC(=O)[C@H](CO)NC(=O)[C@H](CCCNC(=N)N)NC(=O)[C@H](CO)NC(=O)[C@@H](NC(=O)[C@@H](NC(=O)C2(N)CCC2)[C@@H](C)CC)CSSC1(C)C)C(N)=O
B8: (4-Pal)-IC+SRS-((tBu)A)-PPI-(Pen)+IPD-NH2 (peptide)
peptide: [4Pal]ICSRS[tBuAla]PPI[Pen]IPD-NH2
modifications: disulfide 3-11; N-terminus assumed
SMILES: CC[C@H](C)[C@H](NC(=O)[C@@H](N)Cc1ccncc1)C(=O)N[C@H]1CSSC(C)(C)[C@@H](C(=O)N[C@H](C(=O)N2CCC[C@H]2C(=O)N[C@@H](CC(=O)O)C(N)=O)[C@@H](C)CC)NC(=O)[C@H]([C@@H](C)CC)NC(=O)[C@@H]2CCCN2C(=O)[C@@H]2CCCN2C(=O)[C@H](CC(C)(C)C)NC(=O)[C@H](CO)NC(=O)[C@H](CCCNC(=N)N)NC(=O)[C@H](CO)NC1=O
B9: AIC+SRS-((tBu)A)-PPIC+IDD-OH (peptide)
peptide: AICSRS[tBuAla]PPICIDD-OH
modifications: disulfide 3-11; N-terminus assumed
SMILES: CC[C@H](C)[C@H](NC(=O)[C@H](C)N)C(=O)N[C@H]1CSSC[C@@H](C(=O)N[C@H](C(=O)N[C@@H](CC(=O)O)C(=O)N[C@@H](CC(=O)O)C(=O)O)[C@@H](C)CC)NC(=O)[C@H]([C@@H](C)CC)NC(=O)[C@@H]2CCCN2C(=O)[C@@H]2CCCN2C(=O)[C@H](CC(C)(C)C)NC(=O)[C@H](CO)NC(=O)[C@H](CCCNC(=N)N)NC(=O)[C@H](CO)NC1=O
B10: ((N-Me)G)-IC+SRS-((tBu)A)-PPI-(Pen)+IP-(PEG1(10 atoms))-NH2 (peptide)
peptide: [Sar]ICSRS[tBuAla]PPI[Pen]IP[PEG2]-NH2
modifications: disulfide 3-11; N-terminus assumed
SMILES: CC[C@H](C)[C@H](NC(=O)CNC)C(=O)N[C@H]1CSSC(C)(C)[C@@H](C(=O)N[C@H](C(=O)N2CCC[C@H]2C(=O)NCCOCCOCCC(N)=O)[C@@H](C)CC)NC(=O)[C@H]([C@@H](C)CC)NC(=O)[C@@H]2CCCN2C(=O)[C@@H]2CCCN2C(=O)[C@H](CC(C)(C)C)NC(=O)[C@H](CO)NC(=O)[C@H](CCCNC(=N)N)NC(=O)[C@H](CO)NC1=O
B11: ((N-Me)G)-IC+SRSLP-(Oic)-I-(Pen)+IPE-OH (peptide)
peptide: [Sar]ICSRSLP[Oic]I[Pen]IPE-OH
modifications: disulfide 3-11; N-terminus assumed
SMILES: CC[C@H](C)[C@H](NC(=O)CNC)C(=O)N[C@H]1CSSC(C)(C)[C@@H](C(=O)N[C@H](C(=O)N2CCC[C@H]2C(=O)N[C@@H](CCC(=O)O)C(=O)O)[C@@H](C)CC)NC(=O)[C@H]([C@@H](C)CC)NC(=O)[C@@H]2C[C@@H]3CCCC[C@@H]3N2C(=O)[C@@H]2CCCN2C(=O)[C@H](CC(C)C)NC(=O)[C@H](CO)NC(=O)[C@H](CCCNC(=N)N)NC(=O)[C@H](CO)NC1=O
B12: (Nva)-IC+SRSLPPIC+IPD-NH2 (peptide)
peptide: [Nva]ICSRSLPPICIPD-NH2
modifications: disulfide 3-11; N-terminus assumed
SMILES: CCC[C@H](N)C(=O)N[C@H](C(=O)N[C@H]1CSSC[C@@H](C(=O)N[C@H](C(=O)N2CCC[C@H]2C(=O)N[C@@H](CC(=O)O)C(N)=O)[C@@H](C)CC)NC(=O)[C@H]([C@@H](C)CC)NC(=O)[C@@H]2CCCN2C(=O)[C@@H]2CCCN2C(=O)[C@H](CC(C)C)NC(=O)[C@H](CO)NC(=O)[C@H](CCCNC(=N)N)NC(=O)[C@H](CO)NC1=O)[C@@H](C)CC
B13: FIC+SRS-((tBu)A)-PPI-(Pen)+IPD-NH2 (peptide)
peptide: FICSRS[tBuAla]PPI[Pen]IPD-NH2
modifications: disulfide 3-11; N-terminus assumed
SMILES: CC[C@H](C)[C@H](NC(=O)[C@@H](N)Cc1ccccc1)C(=O)N[C@H]1CSSC(C)(C)[C@@H](C(=O)N[C@H](C(=O)N2CCC[C@H]2C(=O)N[C@@H](CC(=O)O)C(N)=O)[C@@H](C)CC)NC(=O)[C@H]([C@@H](C)CC)NC(=O)[C@@H]2CCCN2C(=O)[C@@H]2CCCN2C(=O)[C@H](CC(C)(C)C)NC(=O)[C@H](CO)NC(=O)[C@H](CCCNC(=N)N)NC(=O)[C@H](CO)NC1=O
B14: GIC+SRS-((tBu)A)-P-(Oic)-I-((N-Me)C)+IPD-NH2 (peptide)
peptide: GICSRS[tBuAla]P[Oic]I[NMeC]IPD-NH2
modifications: disulfide 3-11; N-terminus assumed
SMILES: CC[C@H](C)[C@H](NC(=O)CN)C(=O)N[C@H]1CSSC[C@@H](C(=O)N[C@H](C(=O)N2CCC[C@H]2C(=O)N[C@@H](CC(=O)O)C(N)=O)[C@@H](C)CC)N(C)C(=O)[C@H]([C@@H](C)CC)NC(=O)[C@@H]2C[C@@H]3CCCC[C@@H]3N2C(=O)[C@@H]2CCCN2C(=O)[C@H](CC(C)(C)C)NC(=O)[C@H](CO)NC(=O)[C@H](CCCNC(=N)N)NC(=O)[C@H](CO)NC1=O

Target: T1, Recombinant human MASP1 enzyme …
Assay: cell-based or functional assay

Row | human MASP1 IC50 [nM] | Binder
1 | 6.1 | B1
2 | 5.4 | B2
3 | 6.1 | B3
4 | 5.7 | B4
5 | 5.4 | B5
6 | 5.8 | B6
7 | 5.7 | B7
8 | 6.4 | B8
9 | 5.8 | B9
10 | 5.7 | B10
11 | 6.2 | B11
12 | 6.3 | B12
13 | 5.8 | B13
14 | 6 | B14

Target: Recombinant human MASP2 enzyme (fragment corresponding to amino acids 297-686, C-terminal His Tag) (human, UniProt O00187 297-686)
Assay: cell-based or functional assay

Sequence of Recombinant human MASP2 enzyme (fragment corresponding to amino acids 297-686, C-terminal His Tag) (O00187 other isoform, or with tags, fused parts or gaps limits assumed): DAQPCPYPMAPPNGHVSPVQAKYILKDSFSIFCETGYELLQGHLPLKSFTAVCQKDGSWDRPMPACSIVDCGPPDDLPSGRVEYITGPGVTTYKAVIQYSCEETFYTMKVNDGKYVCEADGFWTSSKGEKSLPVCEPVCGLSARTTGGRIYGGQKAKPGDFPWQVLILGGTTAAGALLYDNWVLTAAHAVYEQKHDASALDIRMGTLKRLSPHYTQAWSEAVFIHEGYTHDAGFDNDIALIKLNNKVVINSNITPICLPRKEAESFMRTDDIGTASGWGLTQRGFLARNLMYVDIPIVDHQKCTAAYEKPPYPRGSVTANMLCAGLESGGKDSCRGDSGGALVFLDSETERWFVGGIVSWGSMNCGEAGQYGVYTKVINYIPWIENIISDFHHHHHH

Row | human MASP2 IC50 [nM] | Binder
15 | 170 | B1
16 | 16 | B2
17 | 27 | B3
18 | 44 | B4
19 | 170 | B5
20 | 51 | B6
21 | 15 | B7
22 | 65 | B8
23 | 61 | B9
24 | 74 | B10
25 | 180 | B11
26 | 220 | B12
27 | 73 | B13
28 | 740 | B14
